This note sets out measurements from publication PMC5001929 (Cell reports, 2016).

This assay deals with T1, Gremlin-2 (UniProt O88273 22-168).
T1 sequence: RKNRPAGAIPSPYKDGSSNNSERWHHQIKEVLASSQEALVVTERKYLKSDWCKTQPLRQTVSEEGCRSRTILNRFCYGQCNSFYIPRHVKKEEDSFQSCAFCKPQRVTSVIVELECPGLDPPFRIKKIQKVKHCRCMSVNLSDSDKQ
The experiment in a line: SPR. (Surface plasmon resonance follows binding to a sensor surface in real time, without labels.)

A word on the Kd: it is the constant that tells how readily two partners part at equilibrium.

B1: GDF5 (ligand, UniProt P43026 382-501, looked up)
chain: APLATRQGKRPSKNLKARCSRKALHVNFKDMGWDDWIIAPLEYEAFHCEGLCEFPLRSHLEPTNHAVIQTLMNSMDPESTPPTCCVPTRLSPISILFIDSANNVVYKQYEDMVVESCGCR
Take B1: the affinity, expressed as Kd, was 146 nM.

B2: BMP2 (ligand, UniProt P12643 283-396, looked up)
chain: QAKHKQRKRLKSSCKRHPLYVDFSDVGWNDWIVAPPGYHAFYCHGECPFPLADHLNSTNHAIVQTLVNSVNSKIPKACCVPTELSAISMLYLDENEKVVLKNYQDMVVEGCGCR
B2 yielded a Kd of 9 nM.
